Laboratory results taken from doi:10.1101/2024.06.17.599268 (bioRxiv, 2024).
Positions count from the first letter of the chain named. Names and notes keep the numbering of the source.

T1: Rab8a_(1-176) (human, UniProt P61006 1-176)
T1 sequence: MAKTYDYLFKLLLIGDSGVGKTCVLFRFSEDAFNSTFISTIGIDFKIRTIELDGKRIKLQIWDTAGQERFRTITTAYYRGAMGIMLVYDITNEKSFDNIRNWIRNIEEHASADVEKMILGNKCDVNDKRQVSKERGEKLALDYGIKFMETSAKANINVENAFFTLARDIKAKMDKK

T2: Mical1 MO-CH-LIM (residues 1-781) (human, UniProt Q8TDZ2 1-781)
T2 sequence: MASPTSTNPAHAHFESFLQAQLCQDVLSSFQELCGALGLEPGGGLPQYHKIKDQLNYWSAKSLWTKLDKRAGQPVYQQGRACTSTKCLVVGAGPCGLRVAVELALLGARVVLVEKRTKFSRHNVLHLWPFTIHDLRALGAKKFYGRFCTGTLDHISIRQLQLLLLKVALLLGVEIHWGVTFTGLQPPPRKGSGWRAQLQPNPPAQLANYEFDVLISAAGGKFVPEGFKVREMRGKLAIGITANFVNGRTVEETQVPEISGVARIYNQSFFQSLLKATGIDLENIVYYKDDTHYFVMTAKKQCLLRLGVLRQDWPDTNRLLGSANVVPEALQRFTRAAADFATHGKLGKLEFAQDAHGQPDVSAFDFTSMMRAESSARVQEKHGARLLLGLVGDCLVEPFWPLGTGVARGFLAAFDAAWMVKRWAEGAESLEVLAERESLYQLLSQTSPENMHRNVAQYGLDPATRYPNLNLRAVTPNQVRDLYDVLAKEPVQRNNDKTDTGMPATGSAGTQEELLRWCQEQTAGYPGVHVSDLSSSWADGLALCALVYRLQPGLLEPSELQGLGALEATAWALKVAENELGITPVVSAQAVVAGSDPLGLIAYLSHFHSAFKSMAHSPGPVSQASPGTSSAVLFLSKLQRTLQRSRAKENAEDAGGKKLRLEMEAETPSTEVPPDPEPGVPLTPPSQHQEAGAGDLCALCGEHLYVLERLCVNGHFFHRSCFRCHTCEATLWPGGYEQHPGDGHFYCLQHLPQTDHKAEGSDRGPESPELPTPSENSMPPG

B1: Rab10_(1-175) (natural protein)
chain: MAKKTYDLLFKLLLIGDSGVGKTCVLFRFSDDAFNTTFISTIGIDFKIKTVELQGKKIKLQIWDTAGQERFHTITTSYYRGAMGIMLVYDITNGKSFENISKWLRNIDEHANEDVERMLLGNKCDMDDKRVVPKGKGEQIAREHGIRFFETSAKANINIEKAFLTLAEDILRKTP
B2: Rab15_(1-176) (natural protein)
chain: MAKQYDVLFRLLLIGDSGVGKTCLLCRFTDNEFHSSHISTIGVDFKMKTIEVDGIKVRIQIWDTAGQERYQTITKQYYRRAQGIFLVYDISSERSYQHIMKWVSDVDEYAPEGVQKILIGNKADEEQKRQVGREQGQQLAKEYGMDFYETSACTNLNIKESFTRLTELVLQAHRKE
B3: bMERB K918A_E921A (domain or fragment)
chain: AEEAMKRFCKAQTIQRRLNEIEAALRELEAEGVKLELALRRQSSSPEQQKKLWVGQLLQLVDKKNSLVAEEAELMITVQELNLEEKQWQLDQELRGYMNREENLKTAADRQAEDQVLRKLVDLVNQRDALIRFQEERRLSELALGTGAQG
B4: bMERB L956S (domain or fragment)
chain: B3 chain with A1K, A4E, L39S
B5: bMERB L1011S (domain or fragment)
chain: B3 chain with A1K, A4E, L94S
B6: bMERB_(L1047A_F1050A) (domain or fragment)
chain: B3 chain with A1K, A4E, L130A, F133A
B7: Mical1 bMERB domain (residues 918-1067) (domain or fragment)
chain: B3 chain with A1K, A4E
B8: bMERB I1048A (domain or fragment)
chain: B3 chain with A1K, A4E, I131A
B9: bMERB W970A (domain or fragment)
chain: B3 chain with A1K, A4E, W53A
B10: bMERB L977A_V978A (domain or fragment)
chain: B3 chain with A1K, A4E, L60A, V61A
B11: bMERB R1044A (domain or fragment)
chain: B3 chain with A1K, A4E, R127A
B12: bMERB V1038A (domain or fragment)
chain: B3 chain with A1K, A4E, V121A
B13: bMERB_(M992A_I993A) (domain or fragment)
chain: B3 chain with A1K, A4E, M75A, I76A
B14: bMERB F925A (domain or fragment)
chain: B3 chain with A1K, A4E, F8A
B15: bMERB V1041A (domain or fragment)
chain: B3 chain with A1K, A4E, V124A
B16: bMERB E939A (domain or fragment)
chain: B3 chain with A1K, A4E, E22A
B17: bMERB_(V985A) (domain or fragment)
chain: B3 chain with A1K, A4E, V68A
B18: bMERB L974A_L975A (domain or fragment)
chain: B3 chain with A1K, A4E, L57A, L58A
B19: bMERB_(V1041A_I1048A) (domain or fragment)
chain: B3 chain with A1K, A4E, V124A, I131A

How the values were obtained:
[1] = target: Mical1 MO-CH-LIM (residues 1-781) (human) (UniProt Q8TDZ2); assay: ITC
[2] = target: B7; assay: ITC
[3] = target: T1, Rab8a_(1-176); assay: SEC
[4] = target: T2, Mical1 MO-CH-LIM (residues 1-781); assay: ITC
[5] = target: B1; assay: SEC
[6] = target: B2; assay: SEC
[7] = target: T1, Rab8a_(1-176); assay: ITC

Molecule: Mical1 bMERB domain (residues 918-1067) (from UniProt Q8TDZ2 918-1067) (domain or fragment)
- Kd [1]: 2700 nM
- stoichiometry N [1]: 1

Molecule: B1
- KD of the high-affinity site (Ct-RBS2) [2]: 11 nM
- KD of the low-affinity site (Nt-RBS1) [2]: 3730 nM
- stoichiometry N [2]: 2

Molecule: B2
- KD of the high-affinity site (Ct-RBS2) [2]: 2.5 nM
- KD of the low-affinity site (Nt-RBS1) [2]: 2910 nM
- stoichiometry N [2]: 2

Molecule: B3
- binding result [3]: binds
- fold reduction in affinity against wild-type bMERB [4]: 2 fold

Molecule: B4
- binding result [3]: binds
- fold reduction in affinity against wild-type bMERB [4]: > 9 fold

Molecule: B5
- binding result [3]: binds

Molecule: B6
- binding result [3]: binds

Molecule: B7
- binding result [5]: binds
- binding result [6]: binds
- binding result [3]: binds

Molecule: B8
- binding result [3]: binds

Molecule: B9
- binding result [3]: binds
- fold reduction in affinity against wild-type bMERB [4]: 4 fold

Molecule: B10
- binding result [3]: binds
- fold reduction in affinity against wild-type bMERB [4]: 6 fold

Molecule: B11
- binding result [3]: binds

Molecule: B12
- binding result [3]: binds

Molecule: B13
- binding result [3]: binds
- fold reduction in affinity against wild-type bMERB [4]: > 25 fold

Molecule: B14
- binding result [3]: binds

Molecule: B15
- binding result [3]: binds

Molecule: B16
- binding result [3]: binds
- fold reduction in affinity against wild-type bMERB [4]: > 5 fold

Molecule: B17
- binding result [7]: binds
- fold reduction in affinity against wild-type bMERB [4]: 10 fold

Molecule: B18
- binding result [3]: binds
- fold reduction in affinity against wild-type bMERB [4]: 6 fold

Molecule: B19
- binding result [4]: binds
